Laboratory results taken from paper PMC139967.

Target: T701-Myo1c (neck-tail fragment of bullfrog myosin-1c, amino acids 701-1028) (bullfrog) (UniProt Q92002)
Test: SDS-PAGE gel scanning

Sequence of T701-Myo1c (neck-tail fragment of bullfrog myosin-1c, amino acids 701-1028) (bullfrog) (Q92002 701-1028): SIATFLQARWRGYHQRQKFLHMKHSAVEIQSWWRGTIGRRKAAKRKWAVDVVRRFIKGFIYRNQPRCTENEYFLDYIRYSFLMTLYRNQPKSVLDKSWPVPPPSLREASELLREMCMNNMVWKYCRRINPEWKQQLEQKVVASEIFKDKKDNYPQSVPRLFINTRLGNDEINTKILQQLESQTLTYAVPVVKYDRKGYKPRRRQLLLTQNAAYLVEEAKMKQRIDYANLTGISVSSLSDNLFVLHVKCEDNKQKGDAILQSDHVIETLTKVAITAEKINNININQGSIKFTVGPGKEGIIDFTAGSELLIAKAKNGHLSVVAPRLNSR

stoichiometry N (calmodulins per T701-Myo1c): 2.6
Substance: Xenopus calmodulin (from UniProt P0DP33 1-149) (natural protein)
